# Reference: patent US20220324996A1 (published 2022)
# B1: Hum1/AB21_HC_Mutall (antibody, V domains shown)
# VH: EVQLVESGGGVVQPGGSLRLSCAASGFTFSSNAMSWVRQAPGKGLEWVAGISAGGSDTYYPASVKGRFTISRDNSKNTLYLQMNSLRAEDTAVYYCARETWNHLFDYWGQGTLVTVSS
# VL: SYELTQPPSVSVSPGQTARITCSGGSYSSYYYAWYQQKPGQAPVTLIYSDDKRPSNIPERFSGSSSGTTVTLTISGVQAEDEADYYCGGYDQSSYTNPFGGGTKLTVL
# notes: also called Hum1/AB21mutall
# Tests used:
# human SIRP-α v1 = target: T1, human SIRP-α v1 (human, UniProt P78324 31-149); assay: SPR
# T1 construct: Soluble SIRP analyte in SPR; also called hSIRPa v1; Human V1
# Description: The interactions of anti-SIRPα antibodies with SIRPα from various species (human v1, human v2, cynomolgus, mouse 129, BL6, BALBc, NOD), SIRPβ and SIRPγ were analyzed using two methods, direct immobilization of the antibodies (via GLC chip) or capture via biotinylated Protein A (via NLC chip), according to the following protocols. All experiments were performed at 25° C. using a SPR-based ProteOn XPR36 biosensor (BioRad. Inc, Hercules, Calif.) equipped with GLC or NLC sensor chips. […] Purification was carried out by standard Protein A affinity column chromatography and eluted antibodies were stored in PBS buffer.
# human SIRP-γ = target: T2, human SIRP-γ (human, UniProt Q9P1W8 29-147); assay: SPR
# T2 construct: Soluble SIRP analyte in SPR; also called hSIRPg; SIRPg
# T2 sequence (Q9P1W8 29-147 limits assumed): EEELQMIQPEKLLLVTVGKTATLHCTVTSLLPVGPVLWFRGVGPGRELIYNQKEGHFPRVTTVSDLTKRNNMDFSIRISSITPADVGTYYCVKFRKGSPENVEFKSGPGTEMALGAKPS
# T1 sequence (P78324 31-149 limits assumed): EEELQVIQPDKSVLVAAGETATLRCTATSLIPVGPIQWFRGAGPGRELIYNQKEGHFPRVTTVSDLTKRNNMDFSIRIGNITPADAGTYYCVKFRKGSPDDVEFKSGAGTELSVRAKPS
binder,measurement,setting,value
B1,Kd,human SIRP-α v1,≤ 10 pM
same,Kd,human SIRP-γ,> 1 pM
